The text below walks through data of US20120277286A1, “COMPOSITIONS AND METHODS FOR THE TREATMENT OR PREVENTION OF MITOCHONDRIAL DISEASES” (The Government of the USA, as represented by the Secretary, …, priority 2009, published 2012).

In assay [1] the test system is M17 human neuroblastoma cells. The experiment in a line: YFP-Parkin recruitment to mitochondria in M17 cells. It is filed as cell-based. The note with it: M17 cells stably transduced with control shRNA (CCCP line) or PINK1 shRNA, 10 μM CCCP, 3 hours. From the text: (§1) HeLa YFP-Parkin, PINK1+/+ SV40 transformed MEFs cells, PINK1−/− SV40 transformed MEF, M17 neuroblastoma control shRNA, M17 neuroblastoma PINK1, and Mfn1/2−/− MEF cell lines have been described previously (Narendra (2008) J Cell Biol 183: 795-803). PINK1+/+ and PINK1−/− primary MEFs were isolated from embryos using a standard protocol (Gautier (2008) Proc Natl Acad Sci USA 105: 11364-11369). Parkin+/+ and Parkin−/− transformed MEFs were created by isolation of primary cells from embryos of B6.129S4-Park2tm1Shn/J mice (Jackson Labs), using a standard protocol (Gautier (2008) Proc Natl Acad Sci USA 105: 11364-11369), followed by retroviral transduction of SV40 (Applied Biological Materials, Inc.). YFP-Parkin, YFPParkin mutants, mCherry-Parkin, PINK1-YFP, PINK1 KD-YFP, PINK1 Δ1-110-YFP, and Opa3-PINK1 Δ1-110-YFP are in C1 or N1 Clontech vectors. PINK1WT-V5, PINK1 KD-V5, and PINK1 Δ1-156-V5 are in pDest40 vector (Invitrogen). PINK1 patient mutations are in pLenti-V5 vector (Invitrogen). PINK1-myc is in a pCMBTNT vector (Promega).
(§2) Confocal microscopy of fixed samples, scoring of Parkin recruitment and Parkininduced mitophagy, and live cell imaging were performed as described previously (Narendra (2008) J Cell Biol 183: 795-803). Experiments in Mfn1/2 null cells were performed as described previously with minor modifications. […]

Another assay relates to PINK1. Kind of assay: PINK1 accumulation by fractionation and immunoblotting. In kind it is cell-based. The note with it: HeLa cells, mitochondrial membrane fraction; 10 μM CCCP or 1 μM valinomycin. In outline: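 HeLa cells fractionated with a mitochondria isolation kit for PINK1, with membrane fractions carbonate-extracted in cold 0.1M Na2CO3 to pellet integral membrane proteins; Parkin fractionation by a separate published protocol. PINK1 and Parkin detected in fractions by immunoblot with monoclonal and polyclonal antibodies.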
A general note: A western blot detects proteins with antibodies after separation by electrophoresis.

Another assay concerns COXICA65 cybrid cells. The experiment in a line: PCR-RFLP of wild-type and mutant mtDNA. In kind it is cell-based, human. From the text:
The forward primer, [NT], and the reversed primer, [NT], were used for COXICA65 cybrid.

Another assay concerns HeLa cells. Kind of assay: Parkin in mitochondria-rich membrane fraction, immunoblot. It is filed as cell-based. The note with it: HeLa, CCCP 1 hr, Western blotting.
From the text: (§3) For PINK1 experiments, cells were fractionated using the Mitochondria Isolation Kit (Pierce), according to manufacturer's specifications with slight modifications. To isolate integral membrane proteins, membrane fractions obtained as above were carbonate extracted with 0.1M Na2CO3 fresh cold buffer and membranes were pelleted, as described in the supplemental methods. For Parkin experiments, cells were fractionated as described previously, with minor modifications described in the supplemental methods (Narendra (2008) J Cell Biol 183: 795-803). The following primary antibodies were used: anti-Parkin (PRK8) monoclonal (Santa Cruz), anti-Tom20 polyclonal (Santa Cruz), anti-cytochrome c monoclonal (BD Biosciences), anti-PINK1 polyclonal (Novus Biologicals), anti-VDAC monoclonal (Calbiochem), anti-GAPDH polyclonal (Sigma-Aldrich), anti-Tubulin monoclonal (Sigma-Aldrich), anti-V5 monoclonal (Invitrogen), anti-GFP polyclonal (Invitrogen).
as §3, with “with slight modifications described in the supplemental methods. To isolate” for “with slight modifications. To isolate”, “minor modifications detailed in the” for “minor modifications described in the”, “supplemental methods (Narendra (2008) J Cell Biol 183: 795-803). The protease protection assay was performed as described previously (Chen (2005) J Biol Chem 280: 26185-26192). Cells were fixed and immunostained as described previously (Narendra (2008)” for “supplemental methods (Narendra (2008)”, “anti-GFP polyclonal (Invitrogen), anti-TIM23 monoclonal (BD Biosciences), and anti-Hsp60 monoclonal (Stressgen).” for “anti-GFP polyclonal (Invitrogen).”

Assay [2] has as its system M17 human neuroblastoma cells. Kind of assay: Parkin-induced mitophagy in M17 cells. It is filed as cell-based. The following applies: control shRNA (Parkin line) or PINK1 shRNA, 10 μM CCCP, 24 hours.
From the text: as §1, §2

In the case of `N#CC(C#N)=NNc1cccc(Cl)c1` [CCCP, carbonyl cyanide m-chlorophenylhydrazone], the “cells with mitochondrial YFP-Parkin” value in assay [1] was determined as 67.3±3.1%. In the assay on PINK1, the “endogenous full length PINK1 (˜63 kDa) level after depolarization” value is given as “large increase”.

B1: YFP-Parkin: YFP-tagged Parkin E3 ligase expressed from a transfected vector (protein, UniProt O60260 1-465, looked up)
E3 ubiquitin-protein ligase …: MIVFVRFNSSHGFPVEVDSDTSIFQLKEVVAKRQGVPADQLRVIFAGKELRNDWTVQNCDLDQQSIVHIVQRPWRKGQEMNATGGDDPRNAAGGCEREPQSLTRVDLSSSVLPGDSVGLAVILHTDSRKDSPPAGSPAGRSIYNSFYVYCKGPCQRVQPGKLRVQCSTCRQATLTLTQGPSCWDDVLIPNRMSGECQSPHCPGTSAEFFFKCGAHPTSDKETSVALHLIATNSRNITCITCTDVRSPVLVFQCNSRHVICLDCFHLYCVTRLNDRQFVHDPQLGYSLPCVAGCPNSLIKELHHFRILGEEQYNRYQQYGAEECVLQMGGVLCPRPGCGAGLLPEPDQRKVTCEGGNGLGCGFAFCRECKEAYHEGECSAVFEASGTTTQAYRVDERAAEQARWEAASKETIKKTTKPCPRCHVPVEKNGGCMHMKCPQPQCRLEWCWNCGCEWNRVCMGDHWFDV
modifications: YFP fusion
notes: YFP-tagged Parkin E3 ligase expressed from a transfected vector
B1: in the assay with COXICA65 cybrid cells (COXICA65 cybrid, YFP-Parkin for 45 days), the “wild-type and mutant mtDNA bands” value is “increase in wild-type DNA and a decrease in mutant DNA”. Also, the “mutant mtDNA band at 63 bp” value in the assay with COXICA65 cybrid cells (COXICA65 cybrid, YFP-Parkin for sixty days) is “only a very minor band of mutant mtDNA”. The “wild-type mtDNA percentage after reversion” value in the assay with COXICA65 cybrid cells (cells enriched to 73.7% wild-type, cultured without FACS selection) is on record as approximately 20%. Besides, the “wild-type relative to mutant mtDNA” value in the assay with COXICA65 cybrid cells (cells enriched to >90% wild-type, further 67 days without FACS selection) is “more than 50%”. Further, the “percent of wild-type mtDNA (32P labeling)” value in the assay on COXICA65 cybrid cells (first experiment, 180 days) is recorded as 40.3%; with COXICA65 cybrid cells (first experiment, after 200 days), 73.7%; in the assay with COXICA65 cybrid cells (second experiment, after 200 days), 90.3%. In addition, in the assay on HeLa cells, the “translocation of YFP-Parkin variant to mitochondria-rich membrane fraction” value was “increase”. Besides, in assay [2], the “cells with complete loss of mitochondria” value is 27.1±8.6%.
